Reference: article PMC4768215, “Targeting surface-layer proteins with single-domain antibodies: a potential therapeutic approach against Clostridium difficile-associated disease” (Applied Microbiology and Biotechnology, 2015)

B1: SLP_VHH26 (VHH)
VHH: QVKLEESGGGLVQAGGSLRLSCAASGRTFTNYAMAWFRQASGKEREFVAIISQSGGRTYYGDSVKGRFTISRDNAKNTVYLQLNSLQPEDTGVYYCAAGDSPYYYSRSRYDLWGPGTQVTVSS
notes: From an immune llama phage display library panned on QCD-32g58 SLP; source: monomeric SEC fractions for SPR; not shown: His6, C-terminal, kept
B2: SLP_VHH50 (VHH)
VHH: QVKLEESGGGLVQPGGSLRLSCAASGFTLDYYTIGWFRQAPGKEREGVACISSDDRTYYVDSVKGRFAISRDNVKNTVYLQMNNLKPEDTAVYYCASKESVFLIATMKGCAPGHDDYWGQGTQVTVSS
notes: as for B1
B3: SLP_VHH22 (VHH)
VHH: QVQLVESGGGLVQPGGSLRLSCAASGFTLDSYAIGWFRQAPGKEHEGISCISSNGGSTYYTDSVKGRFTISRDNAKNTVYLQMNSLESEDSAVYYCATVRRCSSLDMALGALATRTKGYDYWGQGTQVTVSS
notes: as for B1

Assays:
[1] = molecular target: 630 SLP (surface layer protein of C. difficile strain 630, HMW and LMW subunits) (Clostridium difficile strain 630); test: SPR; Biacore 3000; 630 SLP immobilised on a CM5 chip, VHHs injected at various concentrations; data not shown
[2] = molecular target: T1, SLP on cells of C. difficile strain BI-1 (ribotype 027) (Clostridioides difficile BI-1 (ribotype …, UniProt A0A9R0BMB3, strain)); test: ELISA; whole cell ELISA: formalin-fixed C. difficile cells coated on MaxiSorp plates, His6-tagged VHH at 10 μg/ml in PBS-T, 37 °C, 1 h, detected with anti-His6-HRP; settings: one partner purified
T1 construct: LMW subunit of the surface layer protein (from the precursor SlpA), C. difficile strain BI-1, ribotype 027; HMW subunit of the surface layer protein (from the precursor SlpA), C. difficile strain BI-1, ribotype 027; Whole cells were the antigen; source: endogenous, on formalin-fixed C. difficile BI-1 cells

[3] = molecular target: T2, SLP on cells of C. difficile strain BI-7 (ribotype 027) (Clostridioides difficile BI-7 (ribotype …, UniProt A0A9R0BMB3, strain)); test: as above; settings: one partner purified
T2 construct: LMW subunit of the surface layer protein (from the precursor SlpA), C. difficile strain BI-7, ribotype 027; HMW subunit of the surface layer protein (from the precursor SlpA), C. difficile strain BI-7, ribotype 027; Whole cells were the antigen; source: endogenous, on formalin-fixed C. difficile BI-7 cells

[4] = molecular target: T3, SLP on cells of C. difficile strain 196 (ribotype 027) (Clostridioides difficile 196 (ribotype …, UniProt A0A9R0BMB3, strain)); test: as above; settings: one partner purified
T3 construct: LMW subunit of the surface layer protein (from the precursor SlpA), C. difficile strain 196, ribotype 027; HMW subunit of the surface layer protein (from the precursor SlpA), C. difficile strain 196, ribotype 027; Whole cells were the antigen; source: endogenous, on formalin-fixed C. difficile 196 cells

[5] = molecular target: T4, SLP on cells of C. difficile strain R20291 (ribotype 027) (Clostridioides difficile R20291 …, UniProt A0A9R0BMB3, strain); test: as above; settings: one partner purified
T4 construct: LMW subunit of the surface layer protein (from the precursor SlpA), C. difficile strain R20291, ribotype 027; HMW subunit of the surface layer protein (from the precursor SlpA), C. difficile strain R20291, ribotype 027; Whole cells were the antigen; source: endogenous, on formalin-fixed C. difficile R20291 cells

[6] = molecular target: QCD-32g58 LMW SLP (low-molecular-weight subunit of the QCD-32g58 surface layer protein) (Clostridium difficile strain QCD-32g58); test: SPR; Biacore 3000; SEC-purified QCD-32g58 LMW SLP subunit amine-coupled to a CM5 chip; single-concentration screen, 200 nM VHH; 25 °C, 10 mM HEPES pH 7.4, 150 mM NaCl, 3 mM EDTA, 0.005 % P20
[7] = molecular target: T5, QCD-32g58 SLP (surface layer protein of C. difficile strain QCD-32g58, HMW and LMW subunits) (Clostridioides difficile QCD-32g58 …, UniProt A0A9R0BMB3, strain); test: SPR; Biacore 3000; SEC-purified QCD-32g58 SLP amine-coupled to a CM5 chip, VHH monomer fractions injected at various concentrations; 25 °C, 10 mM HEPES pH 7.4, 150 mM NaCl, 3 mM EDTA, 0.005 % P20; KD by steady-state analysis; settings: both partners purified
T5 construct: low-molecular-weight (LMW) subunit of the surface layer protein, cut from the precursor SlpA by Cwp84, C. difficile strain QCD-32g58 (ribotype 027); predicted mass 33.9 kDa; high-molecular-weight (HMW) subunit of the surface layer protein, cut from the precursor SlpA by Cwp84, C. difficile strain QCD-32g58 (ribotype 027); predicted mass 44.2 kDa; Both subunits come from one precursor, SlpA; also …

[8] = molecular target: T6, 630 SLP (surface layer protein of C. difficile strain 630, HMW and LMW subunits) (Clostridioides difficile 630 (ribotype …, UniProt Q183M8, strain)); test: SPR; Biacore 3000; 630 SLP immobilised on a CM5 chip, VHHs injected at various concentrations; data not shown; settings: both partners purified
T6 construct: low-molecular-weight (LMW) subunit of the surface layer protein, cut from the precursor SlpA by Cwp84, C. difficile strain 630 (ribotype 012); predicted mass 34.2 kDa; high-molecular-weight (HMW) subunit of the surface layer protein, cut from the precursor SlpA by Cwp84, C. difficile strain 630 (ribotype 012); predicted mass 39.5 kDa; Both subunits come from one precursor, SlpA; source: purified …

[9] = molecular target: T7, QCD-32g58 LMW SLP (low-molecular-weight subunit of the QCD-32g58 surface layer protein) (Clostridioides difficile QCD-32g58 …, UniProt A0A9R0BMB3, strain); test: SPR; Biacore 3000; SEC-purified QCD-32g58 LMW SLP subunit amine-coupled to a CM5 chip; single-concentration screen, 200 nM VHH; 25 °C, 10 mM HEPES pH 7.4, 150 mM NaCl, 3 mM EDTA, 0.005 % P20; settings: both partners purified
T7 construct: low-molecular-weight (LMW) subunit of the surface layer protein, cut from the precursor SlpA by Cwp84, C. difficile strain QCD-32g58 (ribotype 027); predicted mass 33.9 kDa; also called QCD-32g58 SLP LMW subunit; LMW subunit; source: purified from C. difficile QCD-32g58 (low-pH glycine extraction, minor SEC peak at about 15 ml); in the Western blot the LMW band of the extracted SLPs

Row | Binder | Kd [1] [nM] | binding result [2] | binding result [3] | binding result [4] | binding result [5] | Kd [6] [nM] | koff [6] [s⁻¹] | kon [6] [M⁻¹ s⁻¹] | Kd [7] [nM] | binding result [8] | Kd [9] [nM] | koff [9] [s⁻¹] | kon [9] [M⁻¹ s⁻¹]
1 | B1 | 2000 | binds | binds | binds | binds | 460 | 0.097 | 210000 | 580 |  |  |  | 
2 | B2 |  | binds | binds | binds | binds |  |  |  | 75 | no binding | 14 | 0.0027 | 190000
3 | B3 |  | binds | binds | binds | binds |  |  |  | 180 | no binding | 8 | 0.0011 | 130000
